Values belong to the binder of their own block, whether it stands above or below them.
What was measured:
[1] = molecular target: protease domain of Endotheliase-2 (ET2) (human) (UniProt Q9BYE2); test: continuous in vitro enzyme assay on rET2, Fab
[2] = molecular target: protease domain of Endotheliase-2 (ET2) (human) (UniProt Q9BYE2); test: continuous in vitro enzyme assay, inhibition of ET2 protease activity by soluble Fab
[3] = molecular target: protease domain of Endotheliase-2 (ET2) (human) (UniProt Q9BYE2); test: continuous in vitro enzyme assay on rET2, IgG1

Chain of protease domain of Endotheliase-2 (ET2) (human) (Q9BYE2 other isoform, or with tags, fused parts or gaps limits assumed): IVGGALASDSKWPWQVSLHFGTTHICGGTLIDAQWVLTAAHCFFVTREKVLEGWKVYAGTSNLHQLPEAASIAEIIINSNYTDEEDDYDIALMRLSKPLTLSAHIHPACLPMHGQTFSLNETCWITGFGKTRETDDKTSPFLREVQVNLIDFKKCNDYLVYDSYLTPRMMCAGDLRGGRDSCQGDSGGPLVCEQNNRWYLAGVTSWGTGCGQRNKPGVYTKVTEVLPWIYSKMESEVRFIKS

B3: Fab A2 (Fab, V domains shown)
VH: EVQLLESGGGLVQPGGSLRLSCAASGFTFSRYRMYWVRQAPGKGLEWVSSISPSGGDTRYADSVKGRFTISRDNSQNTLYLQMNSLRAEDTAVYYCARGGPRGNKYYFDYWGQGTLVTVSS
VL: DIQMTQSPSFLSAFVGDRVTITCRASQDIRSDLAWYQQTPGKAPKLLIYAASTLKDGAPSRFSGSGSGTEFTLTISSLHPEDLATYYCQHLNGHPAFGPGTKVNIQR
- Ki [1]: 0.15 nM
- Ki [2]: 0.16 nM

B5: D5 IgG1 antibody (Fab D5 reformatted) (antibody, V domains shown)
VH: EVQLLESGGGLVQPGGSLRLSCAASGFTFSRYDMHWVRQAPGKGLEWVSSISSSGGYTAYADSVKGRFTISRDNSKNTLYLQMNSLRAEDTAVYYCARGARGTSQGYWGQGTLVTVSS
VL: DIQMTQSPGTLSLSPGERGTLSCRASQFVSYSYLAWYQQKPGQAPRLLIYGASSRAKGIPDRFSGSGSGTDFTLTITRLEPEDFAVYYCQQYVPSVPWTFGQGTKVEVKR
- Ki [3]: 0.086 nM

B6: C9 IgG1 antibody (Fab C9 reformatted) (antibody, V domains shown)
VH: EVQLLESGGGLVQPGGSLRLSCAASGFTFSRYPMFWVRQAPGKGLEWVSYISSSGGFTGYADSVKGRFTISRDNSKNTLYLQMNSLRAEDTAVYYCARGGPRGNKYYFDYWGQGTLVTVSS
VL: QSVLTQPASVSGSPGQSITISCTGTSSDVGHYNYVSWYQQHPGKAPKVMIYDVSSRPSGVSDRFSGSKSGNTASLAISGLQAEDEADYYCSSYTSGDTLYVFGTGTKVTVLG
- Ki [3]: 0.11 nM

The remaining lines, values ahead:

- Ki [1]: 0.07 nM
- Ki [2]: 0.07 nM
B1: Fab D5 (Fab, V domains shown)
VH: EVQLLESGGGLVQPGGSLRLSCAASGFTFSRYDMHWVRQAPGKGLEWVSSISSSGGYTAYADSVKGRFTISRDNSKNTLYLQMNSLRAEDTAVYYCARGARGTSQGYWGQGTLVTVSS
VL: DIQMTQSPGTLSLSPGERGTLSCRASQFVSYSYLAWYQQKPGQAPRLLIYGASSRAKGIPDRFSGSGSGTDFTLTITRLEPEDFAVYYCQQYVPSVPWTFGQGTKVEVKR

- Ki [1]: 0.095 nM
- Ki [2]: 0.09 nM
B2: Fab D2 (Fab, V domains shown)
VH: EVQLLESGGGLVQPGGSLRLSCAASGFTFSRYRMYWVRQAPGKGLEWVSSISPSGGDTRYADSVKGRFTISRDNSQNTLYLQMNSLRAEDTAVYYCARGGPRGNKYYFDYWGQGTLVTVSS
VL: DIQMTQSPSSLSASVGDRVTITCRASQTIDNYLNWYQQKPGKAPKLVVYAASTLQTRVPSRFSGSGSGTDFTLTIDSLKPEDFATYFCQQGFSNPWTFGQGTTVAMIR

- Ki [1]: 0.31 nM
- Ki [2]: 0.26 nM
B4: Fab C9 (Fab, V domains shown)
VH: EVQLLESGGGLVQPGGSLRLSCAASGFTFSRYPMFWVRQAPGKGLEWVSYISSSGGFTGYADSVKGRFTISRDNSKNTLYLQMNSLRAEDTAVYYCARGGPRGNKYYFDYWGQGTLVTVSS
VL: QSVLTQPASVSGSPGQSITISCTGTSSDVGHYNYVSWYQQHPGKAPKVMIYDVSSRPSGVSDRFSGSKSGNTASLAISGLQAEDEADYYCSSYTSGDTLYVFGTGTKVTVLG
